Results taken from patent US7462695B2, “Insect chymotrypsin and inhibitors thereof” (Hexima Limited, priority 2003, dated 2008).

B1: SBTI: soybean trypsin inhibitor (protein, UniProt P01070 25-205, looked up)
Trypsin inhibitor A: DFVLDNEGNPLENGGTYYILSDITAFGGIRAAPTGNERCPLTVVQSRNELDKGIGTIISSPYRIRFIAEGHPLSLKFDSFAVIMLCVGIPTEWSVVEDLPEGPAVKIGENKDAMDGWFRLERVSDDEFNNYKLVFCPQQAEDDKCGDIGISIDHDDGTRRLVVSKNKPLVVQFQKLDKESL

How the values were obtained:
[1] = tested on: chymotrypsin activity in unfractionated gut extracts from H. punctigera; experiment: Chymotrypsin activity in unfractionated gut extracts with proteinase inhibitors (FIG. 3); type: biochemical, Helicoverpa punctigera; settings: larvae raised on haricot bean diet without added proteinase inhibitors; substrate SAAPFpNA
Protocol: FIG. 3 is a graphical representation showing the effect of various proteinase inhibitors on the chymotrypsin activity in unfractionated gut extracts from H. punctigera. Proteinase inhibitors were mixed with 1 μg of protein from an unfractionated gut extract before incubation with the chymotrypsin substrate N-succinyl-Ala-Ala-Pro-Phe-p-nitroanilide. Inhibition is expressed as a percentage of the total activity in the control samples.
Fourth-instar larvae were killed using ethyl-acetate prior the removal of individual gut which were then homogenized in a mortar and pestle in an equal amount [(w/v)] of 50 mM Tris-HCl, pH 8.0 containing 100 μM benzamidine. Insoluble material was removed by centrifugation at 20,000 rpm for 15 min at 4° C. and total protein concentration determined using the Bradford method (Bradford, Anal Biochem 72: 248-254, 1976) with reagents from BioRad and BSA as a standard.
Unfractionated gut extract containing approximately 1 μg of buffer soluble protein was added to 10 μL CAPS buffer (0.5 M, 3-[cyclohexylamino]-1-propane-sulfonic acid, pH 10) and made to a final volume of 100 μL in individual wells of a 96 well microtiter plate. Proteinase inhibitors were added over a range of concentrations and incubated for 15 min at 25° C. Bovine chymotrypsin (100 ng) was used as a positive control, both for activity and inhibition. The chromogenic artificial substrate SAAPFpNA (N-Succinyl-L-alanyl-L-alanyl-L-prolyl-L-phenylalanine 4-nitroanilide) was then added to a final concentration of 1 mM and hydrolysis of the substrate was measured at 405 nm using the SpectraMax 250 microtiter plate reader (Molecular Devices).

bovine chymotrypsin = bovine chymotrypsin (Bos taurus, UniProt P00766); experiment: Inhibition of bovine chymotrypsin; type: biochemical; settings: 100 ng bovine chymotrypsin, pH 10; for % Inhibition BC: at maximum concentration tested
Protocol: (§1) Several proteinase inhibitors were tested for their ability to inhibit the activity of the insensitive chymotrypsins. The buffer used for all assays was 500 mM CAPS, 75 mM NaCl, 2.5 mM MgCl2 at pH 10.

[2] = tested on: chymotrypsin activity in gut extracts of H. punctigera larvae; experiment: Inhibition of chymotrypsin activity in individual larval gut extracts (FIG. 2F); type: biochemical, Helicoverpa punctigera; settings: pre-incubated with 80 nM
Text: FIG. 2 is a graphical representation showing growth of H. punctigera larvae fed on either low protein haricot bean artificial diet or cotton leaf artificial diet, in the presence or absence of 0.26% (w/v) NaPIs. Weight gain (mg) was monitored for 21 days. […] (A) Growth of larvae. (B) Relative size of larvae at 21 days after feeding on cotton artificial diet, in the presence or absence of 0.26% NaPIs. […] (C) The effect of NaPIs on gut trypsin and chymotrypsin activity. When each H. punctigera larva reached the late fourth/early fifth instar stage of development, the gut was removed and gut extract prepared prior to assays for trypsin and chymotrypsin activity. […] Trypsin activity was determined using BApNA substrate and chymotrypsin activity with SAAPFpNA substrate. Units of activity are expressed as change in absorbance at 405 nm/min/mg gut extract protein (±standard deviation). […] Trypsin activity was determined using BApNA substrate and chymotrypsin activity with SAAPFpNA substrate. Units of activity are expressed as change in absorbance at 405 nm/min/mg faecal extract protein (±standard deviation). […] Frass extracts were analysed on 15% ((w/v)) SDS-PAGE and transferred to nitrocellulose. […] Units of activity are expressed as substrate hydrolysis at 405 nm/min/mg extract protein (±standard deviation). […] Trypsin activity was determined using BApNA substrate. […]

[3] = tested on: chymotrypsin from the gut of H. zea larvae; settings: cited from earlier work
[4] = target: NaPI-insensitive chymotrypsins from H. punctigera (Helicoverpa punctigera, UniProt A0PGE0); experiment: Inhibition of NaPI-insensitive chymotrypsin (gut extract depleted of trypsins and NaPI-sensitive chymotrypsins); type: biochemical; settings: pH 10, 30 min preincubation at 30° C.
Sequence of NaPI-insensitive chymotrypsins from H. punctigera (A0PGE0 entry or part of it): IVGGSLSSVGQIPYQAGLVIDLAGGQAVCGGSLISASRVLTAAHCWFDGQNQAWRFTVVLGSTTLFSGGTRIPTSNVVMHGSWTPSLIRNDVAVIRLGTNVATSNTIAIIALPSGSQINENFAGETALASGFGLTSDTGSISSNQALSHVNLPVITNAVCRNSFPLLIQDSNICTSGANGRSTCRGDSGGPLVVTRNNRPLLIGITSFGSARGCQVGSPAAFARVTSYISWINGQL
Protocol: The midgut was dissected from 100 fourth instar larvae and buffer soluble extracts were prepared. The gut extract was depleted of NaPI-sensitive proteases by passage through an affinity column composed of immobilized NAPI protein (C1, C2, T1-T4). […] This preparation of unbound material was used to study the pH optimum, substrate preference and effect of a range of proteinase inhibitors on the activity of the NaPI-insensitive proteinase. […] The best substrate for enzyme assays was determined using seven different commercial substrates.
as §1

[5] = tested on: trypsin activity in gut extracts; settings: in vitro, cited from earlier work
[6] = tested on: Agrotis ipsilon (black cutworm); settings: after exposure in the diet; cited from earlier work

Molecule | inhibition of gut chymotrypsin activity (in words) [1] | % Inhibition BC (bovine chymotrypsin) [%] | inhibition of chymotrypsin activity, extracts from control and NaPI-fed larvae [2] | inhibition of chymotrypsin activity from the gut of insects with prior exposure to SBTI in the diet [3] [%] | inhibition of chymotrypsin from the gut of control insects [3] [%] | % Inhibition Insensitive ([4]; at maximum concentration tested) [%] | IC50 [4] [µM] | inhibition of gut trypsin activity in larvae that had consumed SBTI ([5]; 48 h on diet with 1% SBTI) [%] | inhibition of trypsin activity in gut extracts from control larvae [5] [%] | reduction in total gut proteolytic activity [6] [%] | IC50 (bovine chymotrypsin) [µM]
CC(C)C[C@H](NC(=O)[C@@H](NC(=O)N[C@@H](Cc1ccccc1)C(=O)O)[C@@H]1CCN=C(N)N1)C(=O)N[C@H](C=O)Cc1ccccc1 [Chymostatin, reference compound] | totally inhibited | 100 | all chymotrypsin activity was abolished |  |  |  |  |  |  |  | 
B1 | failed to abolish all the chymotrysin activity | 94 |  | 35 | 95 | 82 | 33 | 3 | 74 | ≤ 70 | 13
